Measurements from article PMC3858276.
pKd: −log10 of the molar value.

What was measured:
[1] = biological target: phosphorylated SNAP-ADAP fusion protein (ADAP amino acids 570-690) (human) (UniProt O15117); test: MST; SH2 proteins (only partly purified) serially diluted in 1x PBS with 1.75% (v/v) E. coli extract; fluorescent ADAP at 12 nM; 5 min at RT; Monolith NT.115
[2] = biological target: site-specifically biotinylated Fyn SH2 domain (UniProt P06241); test: supernatant depletion assay (pull-down titration); biotinylated SH2 domains on streptavidin-coated DynaBeads, washed once and serially diluted in 1x PBS; ADAP at 8 nM (PBS with 0.1% E. coli extract), 10 min at RT; unbound ADAP in the supernatant read by in-gel fluorescence; Kd estimated from the plot
site-specifically biotinylated Fyn SH2 domain, sequence (P06241 149-246): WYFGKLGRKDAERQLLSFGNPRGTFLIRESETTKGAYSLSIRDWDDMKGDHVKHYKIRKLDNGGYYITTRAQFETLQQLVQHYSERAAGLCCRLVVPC

phosphorylated SNAP-ADAP fusion protein (ADAP amino acids 570-690) (human), sequence (O15117 570-690): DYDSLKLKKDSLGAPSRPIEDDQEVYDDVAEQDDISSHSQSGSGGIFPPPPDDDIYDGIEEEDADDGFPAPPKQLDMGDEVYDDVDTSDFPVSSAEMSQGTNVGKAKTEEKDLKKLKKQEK

Row | Substance | pKd [1] | pKd [2]
1 | Src SH2 domain without biotin (for MST) (from UniProt P12931 151-248) (domain or fragment) | 6.00 | –
2 | Fyn SH2 domain without biotin (for MST) (from UniProt P06241 149-246) (domain or fragment) | 6.00 | –
3 | phosphorylated SNAP-ADAP fusion protein (ADAP amino acids 570-690) (from UniProt O15117 570-690) (domain or fragment) | – | 6.52
